Laboratory results published in publication PMC13132546, “The FAM53C/DYRK1A axis regulates the G1/S transition of the cell cycle” (eLife, 2026).

Target: T1, DYRK1A (recombinant, N-terminally biotinylated) (UniProt Q13627 1-763, biotin on the N-terminus (sortase labelling with a synthetic biotin-LPETGG peptide onto the N-terminal glycine left after TEV cleavage))
T1 construct: DYRK1A; also called Dual-specificity Tyrosine Phosphorylation-regulated Kinase 1 A; biotinylated DYRK1A; not shown: GST, N-terminal, cleaved; biotin-LPETGG peptide (sortase-ligated), N-terminal, kept
Experiment: BLI; Octet-RED96e; 200 nM biotinylated DYRK1A loaded on streptavidin biosensor tips, dipped into FAM53C analyte at varied concentrations; 25 mM Tris pH 8.0, 150 mM NaCl, 1 mM DTT, 2 mg/mL BSA, 0.2% Tween; double reference-subtracted; rates from a 1:1 model, KD from steady-state analysis
Settings: both partners purified

Kd: 3.3 ± 0.5 mM
B1: FAM53C (recombinant) (natural protein, UniProt Q9NYF3 1-392, looked up)
chain: MITLITEQLQKQTLDELKCTRFSISLPLPDHADISNCGNSFQLVSEGASWRGLPHCSCAEFQDSLNFSYHPSGLSLHLRPPSRGNSPKEQPFSQVLRPEPPDPEKLPVPPAPPSKRHCRSLSVPVDLSRWQPVWRPAPSKLWTPIKHRGSGGGGGPQVPHQSPPKRVSSLRFLQAPSASSQCAPAHRPYSPPFFSLALAQDSSRPCAASPQSGSWESDAESLSPCPPQRRFSLSPSLGPQASRFLPSARSSPASSPELPWRPRGLRNLPRSRSQPCDLDARKTGVKRRHEEDPRRLRPSLDFDKMNQKPYSGGLCLQETAREGSSISPPWFMACSPPPLSASCSPTGGSSQVLSESEEEEEGAVRWGRQALSKRTLCQRDFGDLDLNLIEEN
notes: FAM53C; also called C5ORF6; source: E. coli BL21 (DE3), purified (Ni-NTA, TEV cleavage, Q Sepharose, Superdex 75)
